B1: Cryptochrome-2 (Arabidopsis thaliana (Mouse-ear cress)), Q96524 (parent)
chain: MKMDKKTIVWFRRDLRIEDNPALAAAAHEGSVFPVFIWCPEEEGQFYPGRASRWWMKQSLAHLSQSLKALGSDLTLIKTHNTISAILDCIRVTGATKVVFNHLYDPVSLVRDHTVKEKLVERGISVQSYNGDLLYEPWEIYCEKGKPFTSFNSYWKKCLDMSIESVMLPPPWRLMPITAAAEAIWACSIEELGLENEAEKPSNALLTRAWSPGWSNADKLLNEFIEKQLIDYAKNSKKVVGNSTSLLSPYLHFGEISVRHVFQCARMKQIIWARDKNSEGEESADLFLRGIGLREYSRYICFNFPFTHEQSLLSHLRFFPWDADVDKFKAWRQGRTGYPLVDAGMRELWATGWMHNRIRVIVSSFAVKFLLLPWKWGMKYFWDTLLDADLECDILGWQYISGSIPDGHELDRLDNPALQGAKYDPEGEYIRQWLPELARLPTEWIHHPWDAPLTVLKASGVELGTNYAKPIVDIDTARELLAKAISRTREAQIMIGAAPDEIVADSFEALGANTIKEPGLCPSVSSNDQQVPSAVRYNGSKRVKPEEEEERDMKKSRGFDERELFSTAESSSSSSVFFVSQSCSLASEGKNLEGIQDSSDQITTSLGKNGCK
partner: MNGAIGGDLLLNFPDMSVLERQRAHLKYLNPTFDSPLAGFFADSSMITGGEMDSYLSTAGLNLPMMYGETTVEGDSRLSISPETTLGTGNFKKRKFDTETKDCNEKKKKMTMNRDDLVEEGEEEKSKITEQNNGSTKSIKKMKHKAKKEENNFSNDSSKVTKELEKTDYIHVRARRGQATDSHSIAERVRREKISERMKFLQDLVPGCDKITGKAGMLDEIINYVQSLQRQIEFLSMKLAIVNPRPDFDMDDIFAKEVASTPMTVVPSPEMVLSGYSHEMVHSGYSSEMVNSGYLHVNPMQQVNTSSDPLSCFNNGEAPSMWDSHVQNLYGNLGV
B2: Cryptochrome-2 (Arabidopsis thaliana (Mouse-ear cress)), Q96524 (parent)
chain: B1 chain
partner: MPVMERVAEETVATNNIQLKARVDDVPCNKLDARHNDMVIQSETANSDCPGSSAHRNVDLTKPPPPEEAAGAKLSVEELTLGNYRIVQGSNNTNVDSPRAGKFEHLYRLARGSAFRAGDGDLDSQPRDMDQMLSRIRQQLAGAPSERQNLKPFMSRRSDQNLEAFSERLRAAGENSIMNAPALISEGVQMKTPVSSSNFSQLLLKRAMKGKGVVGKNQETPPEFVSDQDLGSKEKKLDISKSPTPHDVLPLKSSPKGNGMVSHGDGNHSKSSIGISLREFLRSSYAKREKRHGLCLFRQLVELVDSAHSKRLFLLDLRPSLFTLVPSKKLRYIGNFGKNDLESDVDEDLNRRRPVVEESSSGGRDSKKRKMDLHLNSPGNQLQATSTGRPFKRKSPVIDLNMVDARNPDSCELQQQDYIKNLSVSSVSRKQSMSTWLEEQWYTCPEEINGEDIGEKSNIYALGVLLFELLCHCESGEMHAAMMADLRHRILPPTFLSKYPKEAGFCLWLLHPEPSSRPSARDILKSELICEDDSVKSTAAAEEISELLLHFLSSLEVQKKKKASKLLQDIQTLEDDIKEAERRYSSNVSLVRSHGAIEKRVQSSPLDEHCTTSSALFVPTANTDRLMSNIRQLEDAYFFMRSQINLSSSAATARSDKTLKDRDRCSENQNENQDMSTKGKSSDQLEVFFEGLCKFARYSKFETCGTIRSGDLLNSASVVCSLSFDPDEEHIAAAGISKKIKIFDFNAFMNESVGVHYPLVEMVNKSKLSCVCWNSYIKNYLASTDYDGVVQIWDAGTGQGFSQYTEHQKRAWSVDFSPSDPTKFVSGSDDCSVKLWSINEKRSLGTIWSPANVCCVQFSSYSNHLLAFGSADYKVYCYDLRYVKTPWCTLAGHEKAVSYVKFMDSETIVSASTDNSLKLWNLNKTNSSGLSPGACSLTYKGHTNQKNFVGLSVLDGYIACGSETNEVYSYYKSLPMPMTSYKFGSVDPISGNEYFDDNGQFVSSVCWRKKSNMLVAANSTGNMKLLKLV

Variants of: B1
Details: with bh063_arath BHLH63, Q8GY61

| Variant | effect of a mutation on the interaction |
| --- | --- |
| W374A | increasing interaction strength |
| D387A | disrupting interaction strength |

Variants of: B2
Details: with spa1_arath SPA1, Q9SYX2

| Variant | effect of a mutation on the interaction |
| --- | --- |
| W374A | increasing interaction strength |
